# Assay results from patent US20100260765A1 (AstraZeneca / MedImmune, published 2010).
# Legend:
# [1] = molecular target: T1, human KDR (VEGFR2) on cells (human, UniProt P35968 20-1356); assay: cell-based or functional assay
# [2] = molecular target: T1, human KDR (VEGFR2) on cells; assay: cell-based or functional assay; remark: listed apart in the source
# [3] = molecular target: T1, human KDR (VEGFR2) on cells; assay: FACS on HUVEC, hybridoma supernatant 1:50
# Description: HUVECs were seeded at 15,000 cells/well and incubated with 100 μL of sample supernatant (at 1:50 dilution) for one hour at 4° C. The positive control was goat anti-KDR antibody (R&D Systems, Inc.), and negative controls included irrelevant hybridoma supernatants at the same dilution. The cells were then washed and incubated with Cy5-conjugated goat anti-human antibody at 5 μg/mL and 7-Amino-Actinomycin D (7AAD) at 5 μg/mL for 15 minutes at 4° C. Bound KDR was detected using FACS analysis.
# [4] = molecular target: T2, soluble KDR (VEGF Receptor 2 D1-7, Cat. #676490, Calbiochem) (human, UniProt P35968 20-764); assay: ELISA, plate-coated soluble KDR 250 ng/mL, hybridoma supernatant 1:5
# T2 construct: extracellular domain; Bought reagent; also called soluble human KDR; immobilized soluble KDR
# T2 sequence (P35968 20-764): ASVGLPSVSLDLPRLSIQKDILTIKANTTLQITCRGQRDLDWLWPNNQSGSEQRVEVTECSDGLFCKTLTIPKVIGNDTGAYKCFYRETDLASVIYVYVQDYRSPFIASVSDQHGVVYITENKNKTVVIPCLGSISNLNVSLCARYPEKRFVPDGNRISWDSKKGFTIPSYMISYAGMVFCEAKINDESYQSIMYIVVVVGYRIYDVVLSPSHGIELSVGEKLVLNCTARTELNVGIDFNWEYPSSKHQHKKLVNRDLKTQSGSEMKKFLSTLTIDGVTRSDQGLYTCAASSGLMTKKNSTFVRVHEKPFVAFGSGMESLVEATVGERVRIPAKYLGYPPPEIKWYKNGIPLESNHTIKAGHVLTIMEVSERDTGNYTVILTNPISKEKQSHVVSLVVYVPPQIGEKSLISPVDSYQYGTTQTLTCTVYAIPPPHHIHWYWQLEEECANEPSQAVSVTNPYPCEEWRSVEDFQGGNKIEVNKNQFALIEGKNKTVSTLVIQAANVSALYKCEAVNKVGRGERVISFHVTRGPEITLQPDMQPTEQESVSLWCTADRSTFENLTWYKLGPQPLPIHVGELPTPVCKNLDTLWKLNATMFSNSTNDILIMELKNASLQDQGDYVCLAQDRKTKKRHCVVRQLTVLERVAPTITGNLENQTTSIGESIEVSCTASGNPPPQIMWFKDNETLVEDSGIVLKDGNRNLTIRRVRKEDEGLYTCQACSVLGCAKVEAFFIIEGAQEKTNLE
# Description: To screen by binding to immobilized soluble KDR, plates were coated with KDR (Calbiochem) at 250 ng/mL overnight at 4° C. After blocking and washing the coated plates, the candidate hybridoma supernatants (at 1:5 dilution) were transferred to the plates and incubated for one hour at room temperature. The plates were then washed and incubated with secondary antibody (at 1:4000 dilution) for one hour at room temperature.
# [5] = molecular target: T1, human KDR (VEGFR2) on cells; assay: cell-based or functional assay; remark: listed apart in the source
# [6] = molecular target: T3, mouse KDR (Flk-1)/Fc (Cat. #443-KD/CF, R&D Systems) (mouse, UniProt P35918 20-762); assay: ELISA, plate-coated Flk-1/Fc 500 ng/mL, hybridoma supernatant 1:5
# T3 construct: Bought reagent; also called mouse VEGFR2; KDR mouse ortholog; Fc part of the bought chimera not given
# T3 sequence (P35918 20-762): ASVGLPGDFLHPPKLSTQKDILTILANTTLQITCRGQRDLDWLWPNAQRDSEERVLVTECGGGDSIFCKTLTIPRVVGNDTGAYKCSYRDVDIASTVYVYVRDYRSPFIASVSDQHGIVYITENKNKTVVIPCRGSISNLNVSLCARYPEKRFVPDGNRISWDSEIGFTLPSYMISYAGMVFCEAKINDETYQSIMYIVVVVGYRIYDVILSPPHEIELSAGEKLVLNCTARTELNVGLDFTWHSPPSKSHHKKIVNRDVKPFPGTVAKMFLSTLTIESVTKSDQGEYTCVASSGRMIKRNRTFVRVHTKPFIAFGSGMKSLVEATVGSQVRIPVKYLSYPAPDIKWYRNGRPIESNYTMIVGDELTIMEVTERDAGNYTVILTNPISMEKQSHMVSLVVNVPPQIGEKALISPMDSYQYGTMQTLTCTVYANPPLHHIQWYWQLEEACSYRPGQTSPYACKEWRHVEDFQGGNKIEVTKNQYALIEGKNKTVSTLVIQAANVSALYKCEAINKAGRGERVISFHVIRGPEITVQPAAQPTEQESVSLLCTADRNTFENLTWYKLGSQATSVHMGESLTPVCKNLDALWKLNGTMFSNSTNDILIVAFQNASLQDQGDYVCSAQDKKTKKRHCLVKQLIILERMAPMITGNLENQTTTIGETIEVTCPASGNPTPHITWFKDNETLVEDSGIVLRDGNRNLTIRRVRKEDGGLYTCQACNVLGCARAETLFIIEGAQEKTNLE
# Description: The cross-reactivity of antibodies in the hybridoma supernatant was tested against KDR mouse ortholog (mouse VEGFR2, or Flk-1) and human VEGFR1 (Flt-1). Cross-reactivity was measured using an ELISA based assay.
# After washing and blocking the plates, the antibody-containing supernatants were added (at 1:5 dilution) into the coated wells and incubated for one hour at room temperature. The plates were then incubated with mouse anti-human IgG 2, 3 and 4 and subsequently with goat anti-mouse IgG Fc POD, to detect and measure bound antibodies.
# b-KDRIg4-7-myc-his = molecular target: T4, b-KDRIg4-7-myc-his (UniProt P35968 328-764, prefix 'b-' not explained; captured on neutravidin-coated plates (presumably biotinylated, site not stated)); assay: ELISA, b-KDRIg4-7-myc-his 1 ug/mL on neutravidin, hybridoma supernatant 1:5
# T4 construct: domain: Ig4-7; The text calls it 'a KDR antibody containing the Ig4-7 domain'; it is read as the KDR fragment; Purified on a nickel column; also called Ig4-7 domain of KDR; soluble KDR Ig4-7; not shown: myc-his tag of the pSecTag vector
# T4 sequence (P35968 328-764): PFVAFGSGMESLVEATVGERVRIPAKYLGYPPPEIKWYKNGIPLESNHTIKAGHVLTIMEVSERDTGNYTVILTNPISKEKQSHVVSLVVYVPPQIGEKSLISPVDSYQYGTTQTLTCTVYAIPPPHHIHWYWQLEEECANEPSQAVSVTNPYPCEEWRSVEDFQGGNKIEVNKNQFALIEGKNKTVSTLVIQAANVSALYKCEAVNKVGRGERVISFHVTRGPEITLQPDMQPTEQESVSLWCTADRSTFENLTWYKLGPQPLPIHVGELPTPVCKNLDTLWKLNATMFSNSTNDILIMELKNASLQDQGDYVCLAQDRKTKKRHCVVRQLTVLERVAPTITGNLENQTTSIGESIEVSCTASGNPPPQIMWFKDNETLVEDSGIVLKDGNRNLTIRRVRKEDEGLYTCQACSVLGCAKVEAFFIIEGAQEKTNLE
# Description: To screen by binding to the Ig4-7 domain of KDR, plates were first coated with neutravadin (Pierce) at 4 μg/mL and incubated overnight at 4° C. The plates were then blocked and subsequently incubated with b-KDRIg4-7-myc-his at 1 μg/mL for one hour at room temperature. Candidate hybridoma supernatants (at 1:5 dilution) were transferred to the plates and incubated for one hour at room temperature. The plates were then washed and incubated with goat anti-human IgG Fc POD (at 1:4000 dilution) for one hour at room temperature.
# T1 sequence (P35968 20-1356): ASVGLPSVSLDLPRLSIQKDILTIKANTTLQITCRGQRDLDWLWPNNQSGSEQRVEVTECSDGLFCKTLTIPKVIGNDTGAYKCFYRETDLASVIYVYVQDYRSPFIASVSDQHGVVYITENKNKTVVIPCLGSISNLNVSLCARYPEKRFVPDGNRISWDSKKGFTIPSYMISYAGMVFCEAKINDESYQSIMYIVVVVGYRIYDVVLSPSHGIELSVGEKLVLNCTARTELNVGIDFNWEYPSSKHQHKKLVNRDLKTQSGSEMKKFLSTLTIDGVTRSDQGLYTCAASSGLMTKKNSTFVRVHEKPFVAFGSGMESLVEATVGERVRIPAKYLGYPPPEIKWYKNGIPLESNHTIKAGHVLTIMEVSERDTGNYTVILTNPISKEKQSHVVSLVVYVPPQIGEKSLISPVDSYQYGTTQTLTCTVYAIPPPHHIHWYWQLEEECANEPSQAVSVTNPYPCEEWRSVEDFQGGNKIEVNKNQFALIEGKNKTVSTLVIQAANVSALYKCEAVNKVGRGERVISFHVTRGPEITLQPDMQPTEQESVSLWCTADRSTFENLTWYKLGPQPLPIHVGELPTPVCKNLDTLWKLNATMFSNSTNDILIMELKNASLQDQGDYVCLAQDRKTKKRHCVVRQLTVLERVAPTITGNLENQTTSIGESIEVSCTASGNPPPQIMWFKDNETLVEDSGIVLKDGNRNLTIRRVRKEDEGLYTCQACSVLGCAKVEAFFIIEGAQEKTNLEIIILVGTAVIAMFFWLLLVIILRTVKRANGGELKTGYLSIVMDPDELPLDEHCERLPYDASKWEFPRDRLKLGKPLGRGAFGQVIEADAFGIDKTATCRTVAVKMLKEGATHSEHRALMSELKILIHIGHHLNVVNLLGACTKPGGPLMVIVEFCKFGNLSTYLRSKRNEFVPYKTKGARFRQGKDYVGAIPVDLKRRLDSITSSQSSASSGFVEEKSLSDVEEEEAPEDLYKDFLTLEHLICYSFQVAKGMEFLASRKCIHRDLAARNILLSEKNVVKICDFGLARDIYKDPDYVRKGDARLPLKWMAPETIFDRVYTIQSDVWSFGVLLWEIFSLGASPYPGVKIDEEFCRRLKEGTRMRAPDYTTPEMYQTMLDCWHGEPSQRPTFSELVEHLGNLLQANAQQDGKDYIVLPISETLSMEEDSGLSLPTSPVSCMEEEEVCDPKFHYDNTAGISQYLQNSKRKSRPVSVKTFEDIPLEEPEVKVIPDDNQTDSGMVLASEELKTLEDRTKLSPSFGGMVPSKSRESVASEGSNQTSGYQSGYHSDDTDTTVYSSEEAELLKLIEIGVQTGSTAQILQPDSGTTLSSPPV
Binder,% Inhibition of VEGF-E-mediated pTyr Activity [1] [%],HUVEC survival (n = 1) 1:10 dilution of supernatant (RLU) [2] [RLU],HUVEC survival (n = 2) 1:20 dilution of supernatant (RLU) [2] [RLU],FACS Geometric Mean [3],KDR OD(450 nm) [4] [OD450],"% Inhibition of VEGF165-mediated pTyr Activity, Average [5] [%]","% Inhibition of VEGF165-mediated pTyr Activity, n = 1 [5] [%]","% Inhibition of VEGF165-mediated pTyr Activity, n = 2 [5] [%]","% Inhibition of VEGF165-mediated pTyr Activity, n = 3 [5] [%]",OD (450 nm) [6] [OD450],b-KDRIg4-7 OD(450 nm) (b-KDRIg4-7-myc-his) [OD450]
"anti-KDR monoclonal antibody 29F7 (antibody, V domains shown, Fully human mAb from XenoMouse (IgG2 or IgG4 strain); hybridoma supernatant) VH: QVQLVQSGAEVKKPGASVKVSCKASGYTFTSYDINWVRQATGQGLEWMGWMNPNSGKTGYAQKFQGRVTMTRSTSISTAYMELSSLRSEDTAVYYCARGGYSNLGWFDPWGQGTLVTVSS VL: DIQMTQSPSSVFASVGDRVTITCRASQGISTWLAWYQQKPGKAPKFLIYAASSLQSGVPSRFSGSGSGTDFTLTISSLQPDDFATYYCQQANNFPFTFGPGTKVDIK",45,44100,24000,32,1.22,78,90,67,77,0.093,
"anti-KDR monoclonal antibody 32C11 (antibody, V domains shown, Fully human mAb from XenoMouse (IgG2 or IgG4 strain); hybridoma supernatant) VH: EVQLLESGGTLVQPGGSLRLSCAASGFTFSNYAMSWVRQAPGKGLEWVSAISGRAGSTYYADSVKGRFTISRDNSKNTLFLQMNSLRAEDTAVYYCAKASGDDWGQGTLVTVSS VL: not shown",17,44800,8570,26,0.924,72,84,75,57,0.083,
"anti-KDR monoclonal antibody 27A3 (antibody, V domains shown, Fully human mAb from XenoMouse (IgG2 or IgG4 strain); hybridoma supernatant) VH: QLQLQESGPGLVKPSETLSLTCTVSGGSISSRSDYWGWIRQPPGKGLEWIGTIYYSGDTYYNPSLKSRVTISVDTSKNQFSLKLSSVTAADTAVYYCARQQLVLYYFDYWGQGTLVTVSS VL: EIVLTQSPGTLSLSPGERATLSCRASQSVSSSYLAWYQQKPGQAPRLLIYATSNRATGIPDRFSGSGSGTDFTLTISRLEPEDFAVYYCQQHGSSPPLTFGGGTKVEIK",60,17300,4560,25,3.75,62,60,68,59,,1.82
"anti-KDR monoclonal antibody 21H9 (antibody, V domains shown, Fully human mAb from XenoMouse (IgG2 or IgG4 strain); hybridoma supernatant) VH: QVPLVESGGGVVQPGRSLRLSCAASGFTFSSYGMHWVRQAPGKGLEWVAVIWYDGSNKYYADSVQGRFTISRDNSKNTLYLQMNSLRAEDTAVYYCARGVTMVRGLIIARYYYGLDVWGQGTTVTVSS VL: DIVMTQTPLSSPVTFGQPASISCRSSQSLVHSDGNTYLSWLQQRPGQPPRLLIYKISNRFFGVPDRFSGSGAGTDFTLKISRVEAEDVGLYYCMQSTQFPLTFGGGTKVEIK",6,43800,10300,29,1.65,70,80,70,61,0.139,
"anti-KDR monoclonal antibody 24C9 (antibody, V domains shown, Fully human mAb from XenoMouse (IgG2 or IgG4 strain); hybridoma supernatant) VH: EVQLVESGGGLVKPGGSLRLSCAASGFTFSTYSMNWVRQAPGKGLEWVSFISGRSSYIYYADSVKGRFTISRDNAKNSLYLQMNSLRAEDTAVYYCSKDDWFEELWGQGTLVTVSS VL: DIQMTQSPSSLSASVGDRVTITCRASQGIRNDLGWYQQKPGKAPKRLIYATFSLQSGVPSRFSGSGSGTEFTLTISSLQPEDFATYYCLQHNRYPWTFGQGTKVEIK",51,14600,9180,33,0.55,46,55,45,38,0.098,
